In publication PMC2645002:

Target: miniCD4 CD4M48, biotinylated at Lys11
Test: pull-down

HIV-1 envelope glycoprotein gp120SF162 (monomer) (natural protein)
% of recovery: 55.8%
